The text below walks through data of WO2014084859A1.

A value given as a limit tells only on which side of the number the result lay.

The target in test [1] is TMEM16A-GFP fusion protein on HEK293 stable cells (UniProt Q5XXA6). As to the kind of experiment: flow cytometry on HEK293-TMEM16A cells. (In general: In flow cytometry, cells or beads pass a laser one at a time.)
The target of another test is SP31 ab64085. The test can be described thus: peptide blocking of SP31 ab64085, western blot of TMEM16A.
In test [2] the target is T1, peptide 44 (linear 15-mer of the ECD1-3 library) (human).
T1 sequence (peptide): VQISRYKDYREPPWS
The test can be described thus: peptide microarray (RepliTope), linear 15-mer.

The target of test [3] is T2, peptide 45 (linear 15-mer of the ECD1-3 library) (human).
T2 sequence (peptide): SRYKDYREPPWSENK
The test can be described thus: peptide microarray (RepliTope), linear 15-mer.

Test [4] has as its target T3, peptide 46 (linear 15-mer of the ECD1-3 library) (human).
T3 sequence (peptide): KDYREPPWSENKYDI
As to the kind of experiment: peptide microarray (RepliTope), linear 15-mer.

Test [5] has as its target peptide 44 (cyclic, flanked by cysteines, second library) (human). The test can be described thus: peptide microarray (RepliTope), cyclic peptide.
In test [6] the target is peptide 45 (cyclic, flanked by cysteines, second library) (human). The test can be described thus: peptide microarray (RepliTope), cyclic peptide.
The target in test [7] is peptide 46 (cyclic, flanked by cysteines, second library) (human). The test can be described thus: peptide microarray (RepliTope), cyclic peptide.

UniProt Q5XXA6, sequence (Q5XXA6 whole entry, the tested form may be a part): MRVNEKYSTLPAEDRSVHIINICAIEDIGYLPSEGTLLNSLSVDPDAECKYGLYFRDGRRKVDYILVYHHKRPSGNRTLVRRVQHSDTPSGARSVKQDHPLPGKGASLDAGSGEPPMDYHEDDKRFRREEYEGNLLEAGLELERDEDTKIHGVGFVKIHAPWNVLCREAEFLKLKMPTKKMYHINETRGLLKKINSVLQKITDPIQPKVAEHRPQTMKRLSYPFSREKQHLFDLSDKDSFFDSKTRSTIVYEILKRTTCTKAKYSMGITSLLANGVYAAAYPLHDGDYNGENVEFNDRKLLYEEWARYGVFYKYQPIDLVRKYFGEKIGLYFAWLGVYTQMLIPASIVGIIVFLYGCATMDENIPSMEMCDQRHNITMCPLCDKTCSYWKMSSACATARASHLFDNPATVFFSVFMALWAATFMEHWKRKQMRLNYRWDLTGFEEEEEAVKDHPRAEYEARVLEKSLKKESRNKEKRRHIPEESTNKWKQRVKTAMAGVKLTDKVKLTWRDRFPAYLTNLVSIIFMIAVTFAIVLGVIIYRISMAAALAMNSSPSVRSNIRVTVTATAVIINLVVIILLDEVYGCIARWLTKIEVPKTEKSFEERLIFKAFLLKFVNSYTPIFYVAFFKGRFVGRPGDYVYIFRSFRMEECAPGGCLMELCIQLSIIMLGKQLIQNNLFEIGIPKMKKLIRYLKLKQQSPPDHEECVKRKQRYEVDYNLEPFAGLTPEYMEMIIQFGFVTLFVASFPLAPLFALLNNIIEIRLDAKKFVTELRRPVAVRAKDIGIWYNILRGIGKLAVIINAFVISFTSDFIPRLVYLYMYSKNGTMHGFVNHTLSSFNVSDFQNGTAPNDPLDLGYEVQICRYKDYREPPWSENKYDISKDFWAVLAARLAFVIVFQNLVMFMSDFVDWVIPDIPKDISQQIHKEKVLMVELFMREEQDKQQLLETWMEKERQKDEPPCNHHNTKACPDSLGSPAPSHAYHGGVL

“isotype control antibody (flow cytometry with 12E11)”: the median fluorescence intensity in test [1] was determined as 93.

B1: Peptide #2 (peptide)
peptide: DHEECVKRKQRYEVDYNLE
On to B1, for which the peptide concentration at which pre-incubation blocked the western blot signal with SP31 ab64085 is 0.01 µg/mL.

B2: 12E11 (antibody, V domains shown)
VH: QVQLKESGPGLVQPSQTLTLTCTVSGFSLSNYDMHWVRQSPGKGLDWMGVIWGNGKTQYNSGLTSRLSISRDTSKSQVFLKMNSLQTEDTAIYFCTRSGYYYDGSYYSLFDYWGQGVMVTVSS
VL: DVVLTQTPPTLSATIGQSVSISCRSSQSLLHSNGNTYLNWLLQRPGQPPQLLIYLVSRLESGVPNRFSGSGSGTDFTLKISGVEAEDLGVYYCVQSTHAPAFGGGTKLELK
Consider B2, for which the signal over background signal (after subtraction of the signals of the unrelated antibody) in test [2] is 3 times; in test [3] it was above 3 times; in test [4], above 3 times; in test [5], above 3 times; in test [6], above 3 times; in test [7], above 3 times. Also, the signal (AU, arbitrary unit) in test [4] and in test [7] was 15000 AU throughout.
